# System: human brain endothelial cells (HBEC)
# Test: Confocal microscopy internalization
# Format: cell-based
# Details: 100 nM AF647-CBP-4, 90 min (labelled IGFBP-4: unpublished observation)
# Description: HBEC (100000 cell/well in a 24-well format plate) were seeded on human fibronectin- (40 μg/ml) coated cover slips (Bellco Biotechnology) in 400 μl HBEC media and grown until reached 80% confluence. Cells were then washed twice with D-MEM and incubated in D-MEM for 30 min at 37 C. Then, D-MEM was removed and replaced with 250 μl/well of D-MEM containing 100 nM AF647-CBP-4 conjugate for 90 min and then washed with PBS. Cells were counterstained with the membrane dye DiOC5(3) for 15 seconds and then washed with PBS. Imaging of cells was performed using Zeiss LSM 410 (Carl Zeiss, Thornwood, N.Y., USA) inverted laser scanning microscope equipped with an Argon\Krypton ion laser and a Plan-Apochromat 63X, NA 1.4. Confocal images of two fluoroprobes were sequentially obtained using 488 and 647 nm excitation laser lines to detect DiOC5(3) (510-525 nm emission) and Alexa 647 fluorescence (670-810 nm emission).
molecule,measurement,value
"fluorescently-labeled IGFBP-4: fluorescently-labeled IGFBP-4, unpublished observations (conjugate, UniProt P22692 22-258, looked up, fluorescent label, fluorescently-labeled IGFBP-4, unpublished observations) Insulin-like growth …: DEAIHCPPCSEEKLARCRPPVGCEELVREPGCGCCATCALGLGMPCGVYTPRCGSGLRCYPPRGVEKPLHTLMHGQGVCMELAEIEAIQESLQPSDKDEGDHPNNSFSPCSAHDRRCLQKHFAKIRDRSTSGGKMKVNGAPREDARPVPQGSCQSELHRALERLAASQSRTHEDLYIIPIPNCDRNGNFHPKQCHPALDGQRGKCWCVDRKTGVKLPGGLEPKGELDCHQLADSFRE",internalization into HBEC,internalized into HBEC

# From US20090048158A1, “Insulin-Like Growth Factor Binding Protein-4 Compounds and Methods for Inhibiting Angiogenesis and Tumor Growth in Mammalian Cells” (priority 2005, published 2009)
